The source of these data is PMC8188212, “Multi‐Arm PEG/Peptidomimetic Conjugate Inhibitors of DR6/APP Interaction Block Hematogenous Tumor Cell Extravasation” (Advanced Science, 2021).

The test system of the series is HUVECs. The series is described as follows: Apoptosis analysis, annexin V-FITC/PI flow cytometry. Format: cell-based, human. As to conditions: 24 h, rhTRAIL 100 ng mL^–1 as positive control. On the procedure: To evaluate the number of apoptotic cells after treatment of AHP‐DRI‐12 and PEG‐tAHP‐DRI, 5 × 10^5 HUVECs were seeded in six‐well plates and treated with rhTRAIL (100 ng mL^–1, Peprotech) or AHP‐DRI‐12 and PEG‐tAHP‐DRI (0.1 × 10^–6, 1.0 × 10^–6, 10 × 10^–6 M AHP‐DRI‐12). After incubating for 24 h, HUVECs were harvested and resuspended in 100 µL binding buffer, and then stained with FITC‐labeled annexin V and propidium iodide (PI) (BD Biosciences) according to the manufacturer's instructions. The apoptotic number of HUVECs was measured by flow cytometry.
For orientation: Flow cytometry measures light scatter and fluorescence of single cells or particles in a stream.

With TRAIL, the HUVECs undergoing apoptosis worked out at 30%.
